Assay results reported in patent publication US20130330343A1 (AbbVie / Abbott, published 2013).

T1: hRGMc expressed in 293HEK cells (human, UniProt Q6ZVN8 36-400)
T1 sequence: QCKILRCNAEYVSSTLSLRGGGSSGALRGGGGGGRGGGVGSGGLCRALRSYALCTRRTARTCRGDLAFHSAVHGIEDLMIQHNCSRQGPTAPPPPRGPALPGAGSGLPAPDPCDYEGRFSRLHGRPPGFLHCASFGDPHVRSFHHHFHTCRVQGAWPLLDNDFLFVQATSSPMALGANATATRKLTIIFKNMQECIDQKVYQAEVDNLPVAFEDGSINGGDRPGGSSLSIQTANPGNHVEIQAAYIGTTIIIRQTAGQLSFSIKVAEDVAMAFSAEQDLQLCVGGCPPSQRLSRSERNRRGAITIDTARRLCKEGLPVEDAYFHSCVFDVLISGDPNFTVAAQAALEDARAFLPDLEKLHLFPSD

T2: Rat RGMa-His (rat) (UniProt D4A188)
T2 sequence: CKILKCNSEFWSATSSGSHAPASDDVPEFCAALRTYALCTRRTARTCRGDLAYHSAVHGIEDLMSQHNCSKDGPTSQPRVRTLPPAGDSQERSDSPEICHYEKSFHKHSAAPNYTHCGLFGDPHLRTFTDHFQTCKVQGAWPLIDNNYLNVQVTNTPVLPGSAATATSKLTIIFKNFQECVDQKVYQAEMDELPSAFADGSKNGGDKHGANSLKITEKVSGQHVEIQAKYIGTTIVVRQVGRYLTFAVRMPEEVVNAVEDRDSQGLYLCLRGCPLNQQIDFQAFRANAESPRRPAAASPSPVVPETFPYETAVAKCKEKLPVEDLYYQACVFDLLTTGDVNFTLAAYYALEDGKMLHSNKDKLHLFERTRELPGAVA

T3: Rat RGMa (rat) (UniProt D4A188)
T3 sequence: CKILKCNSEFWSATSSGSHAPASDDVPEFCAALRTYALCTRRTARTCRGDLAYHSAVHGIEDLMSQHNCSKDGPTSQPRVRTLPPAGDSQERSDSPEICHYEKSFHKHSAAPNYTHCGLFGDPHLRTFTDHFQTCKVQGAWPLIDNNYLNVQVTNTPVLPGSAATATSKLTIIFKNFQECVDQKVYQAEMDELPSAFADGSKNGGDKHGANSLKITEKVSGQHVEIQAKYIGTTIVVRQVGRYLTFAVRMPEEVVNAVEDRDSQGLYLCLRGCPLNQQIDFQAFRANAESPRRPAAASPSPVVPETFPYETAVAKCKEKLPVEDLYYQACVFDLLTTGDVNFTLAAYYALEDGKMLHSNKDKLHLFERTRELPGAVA

T4: R&D hRGMc-His (human, UniProt Q6ZVN8 36-400)
T4 construct: Bought (R&D); not shown: His tag
T4 sequence: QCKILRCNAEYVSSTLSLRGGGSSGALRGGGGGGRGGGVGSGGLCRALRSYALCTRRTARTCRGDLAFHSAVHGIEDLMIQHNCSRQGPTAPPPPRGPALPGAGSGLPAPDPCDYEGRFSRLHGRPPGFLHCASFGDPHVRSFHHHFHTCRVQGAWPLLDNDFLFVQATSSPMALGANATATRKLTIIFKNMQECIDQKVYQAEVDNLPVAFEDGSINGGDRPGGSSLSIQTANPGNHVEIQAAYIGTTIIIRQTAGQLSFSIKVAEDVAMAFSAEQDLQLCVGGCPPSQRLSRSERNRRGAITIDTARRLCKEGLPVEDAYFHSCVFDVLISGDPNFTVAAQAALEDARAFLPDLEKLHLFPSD

T5: hRGMa-His (human, UniProt Q96B86 48-422, limits assumed)
T5 construct: not shown: His tag
T5 sequence (looked up): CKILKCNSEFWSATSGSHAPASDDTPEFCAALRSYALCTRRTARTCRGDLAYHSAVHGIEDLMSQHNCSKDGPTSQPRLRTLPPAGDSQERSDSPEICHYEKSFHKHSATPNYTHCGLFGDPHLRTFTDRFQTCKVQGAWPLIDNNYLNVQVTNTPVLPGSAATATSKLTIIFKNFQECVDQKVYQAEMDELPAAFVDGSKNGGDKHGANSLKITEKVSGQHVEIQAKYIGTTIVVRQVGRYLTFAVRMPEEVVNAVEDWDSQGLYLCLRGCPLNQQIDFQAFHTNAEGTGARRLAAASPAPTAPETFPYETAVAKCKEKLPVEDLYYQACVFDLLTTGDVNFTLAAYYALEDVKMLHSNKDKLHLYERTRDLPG

T6: human RGMc (human, UniProt Q6ZVN8 36-400, limits assumed)
T6 construct: also called hRGMc
T6 sequence: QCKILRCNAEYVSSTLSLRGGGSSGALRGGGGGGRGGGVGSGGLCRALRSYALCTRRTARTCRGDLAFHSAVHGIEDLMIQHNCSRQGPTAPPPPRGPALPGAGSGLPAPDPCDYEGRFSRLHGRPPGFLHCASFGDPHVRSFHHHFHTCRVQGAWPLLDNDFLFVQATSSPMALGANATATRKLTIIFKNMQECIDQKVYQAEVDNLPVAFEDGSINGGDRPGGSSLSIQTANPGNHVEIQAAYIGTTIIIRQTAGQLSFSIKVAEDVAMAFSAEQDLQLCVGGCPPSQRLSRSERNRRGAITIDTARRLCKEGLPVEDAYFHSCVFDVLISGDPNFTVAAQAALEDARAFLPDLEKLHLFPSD

T7: human RGMa (human, UniProt Q96B86 48-422, limits assumed)
T7 construct: also called hRGMa; h RGMa
T7 sequence (looked up): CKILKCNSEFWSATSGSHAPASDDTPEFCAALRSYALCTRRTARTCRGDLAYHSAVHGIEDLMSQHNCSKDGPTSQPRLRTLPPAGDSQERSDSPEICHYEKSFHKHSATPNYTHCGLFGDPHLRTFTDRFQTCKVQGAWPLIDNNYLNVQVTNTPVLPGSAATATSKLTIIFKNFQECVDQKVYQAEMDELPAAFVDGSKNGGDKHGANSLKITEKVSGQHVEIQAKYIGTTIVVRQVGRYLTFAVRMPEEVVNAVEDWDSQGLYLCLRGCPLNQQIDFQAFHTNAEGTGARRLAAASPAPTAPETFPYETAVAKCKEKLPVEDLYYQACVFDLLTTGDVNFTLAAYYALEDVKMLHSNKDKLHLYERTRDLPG


What was measured:
[1] = molecular target: T1, hRGMc expressed in 293HEK cells; experiment: cell-based or functional assay
Rat RGMa-His (rat) = molecular target: T2, Rat RGMa-His (rat); experiment: Affinity KD (nM); (BIAcore per Example 4)
Rat RGMa (rat) = molecular target: T3, Rat RGMa (rat); experiment: BIAcore; Ab captured via anti-hIgG Fc on CM5 chip, antigen injected; 1:1 Langmuir fit
R&D hRGMc-His = molecular target: T4, R&D hRGMc-His; experiment: Affinity KD (nM); (BIAcore per Example 4)
Method: (§1) The potency data correlates with the affinity data (see Table 5). The affinity of h5F9.23 affinity matured Abs towards human RGMa, rat RGMa, and human RGMc were determined by BIAcore analysis (Table 5). Testing Abs were captured to the surface of a CM5 chip via anti-hIgG Fc Ab, and serially diluted antigens were injected. Association and dissociation rates were monitored for 5 and 10 min respectively. Sensorgrams were fitted by global analysis using the BIAevaluation 4.0.1 software for a 1:1 Langmuir binding model. The equilibrium dissociation constants (KD) were calculated from kinetic rate constants (off rate kd and on rate ka): KD=kd/ka.

hRGMa-His = molecular target: T5, hRGMa-His; experiment: Affinity KD (nM); (BIAcore per Example 4)
Method: as §1

human RGMc = molecular target: T6, human RGMc; experiment: BIAcore; Ab captured via anti-hIgG Fc on CM5 chip, antigen injected; 1:1 Langmuir fit
Method: as §1

human RGMa = molecular target: T7, human RGMa; experiment: as above
Method: as §1

[2] = molecular target: T1, hRGMc expressed in 293HEK cells; experiment: cell-based or functional assay; remark: listed apart in the source

Binder	IC50 (inhibition of RGMc-mediated BRE-luciferase activity, RLU, in 293HEK cells transfected with hRGMc) [1]	Kd (Rat RGMa-His (rat))	Kd (Rat RGMa (rat))	koff (Rat RGMa (rat))	kon (Rat RGMa (rat))	Kd (R&D hRGMc-His)	Kd (hRGMa-His)	Kd (human RGMc)	koff (human RGMc)	kon (human RGMc)	Kd (human RGMa)	koff (human RGMa)	kon (human RGMa)	IC50, RGMc-mediated BMP reporter (BRE-luc) assay in 293HEK cells [2]
RGMA-h5F9Vh7a/pJP291 hIgG1/K mut (antibody, V domains shown, Tested as IgG; also called h5F9.AM4; H5F9AM.4) VH: EVQLVESGGGLVQPGGSLRLSCAASGFTFSNYGMNWIRQAPGKGLEWIGMIYYDSSEKHYADSVKGRFTISRDNSKNTLYLQMNSLRAEDTAVYYCAKGTTPDYWGQGTMVTVSS VL: DVVLTQSPLSLPVTLGQPASISCRSSQSLESSDGDTFLEWFQQRPGQSPRLLIYDVSTRFSGVPDRFSGSGSGTDFTLKISRVEAEDVGVYYCFQVTHDPVTFGQGTKLEIK	0.31 nM	< 0.00094 nM	< 0.00094 nM	< 1e-06 s⁻¹	1.1e+06 M⁻¹ s⁻¹	0.12 nM	0.015 nM	0.13 nM	0.00104 s⁻¹	7.85e+06 M⁻¹ s⁻¹	0.015 nM	2.2e-05 s⁻¹	1.4e+06 M⁻¹ s⁻¹	
humanized antibody 5F9.23 (antibody, V domains shown, also called h5F9.23; H5F9.23) VH: EVQLVESGGGLVQPGGSLRLSCAASGFTFSNYGMNWIRQAPGKGLEWIGMIYYDSSEKHYADSVKGRFTISRDNSKNTLYLQMNSLRAEDTAVYYCAKGTTPDYWGQGTMVTVSS VL: DVVLTQSPLSLPVTLGQPASISCRSSQSLEYSDGYTFLEWFQQRPGQSPRLLIYEVSNRFSGVPDRFSGSGSGTDFTLKISRVEAEDVGVYYCFQATHDPLTFGQGTKLEIKR	17.1 nM		2.1 nM	0.0017 s⁻¹	830000 M⁻¹ s⁻¹			29 nM		830000 M⁻¹ s⁻¹	3.7 nM	0.0022 s⁻¹	600000 M⁻¹ s⁻¹	17 nM
RGMA-h5F9pJP297/pJP299 hIgG1/K mut (antibody, V domains shown, Tested as IgG; also called h5F9.AM9; H5F9AM.9) VH: EVQLVESGGGVVQPGRSLRLSCAASGFTFSNYGMNWVRQAPGKGLEWVAMIYYDSSEKHYADSVKGRFTISRDNSKNTLYLQMNSLRAEDTAVYYCARGTTPDYWGQGTMVTVSS VL: DVVLTQSPLSLPVTLGQPASISCRSSQSLADSDGDTFLHWFQQRPGQSPRLLIYAVSHRFSGVPDRFSGSGSGTDFTLKISRVEAEDVGVYYCFQATHDPVTFGQGTKLEIK	1.36 nM	0.31 nM	0.31 nM	0.00021 s⁻¹	680000 M⁻¹ s⁻¹	0.69 nM	0.47 nM	0.71 nM	0.0107 s⁻¹	1.55e+07 M⁻¹ s⁻¹	0.47 nM	0.0004 s⁻¹	860000 M⁻¹ s⁻¹	

Now from value to binder:

IC50 (inhibition of RGMc-mediated BRE-luciferase activity, RLU, in 293HEK cells transfected with hRGMc) [1]	Kd (Rat RGMa-His (rat))	Kd (Rat RGMa (rat))	koff (Rat RGMa (rat))	kon (Rat RGMa (rat))	Kd (R&D hRGMc-His)	Kd (hRGMa-His)	Kd (human RGMc)	koff (human RGMc)	kon (human RGMc)	Kd (human RGMa)	koff (human RGMa)	kon (human RGMa)	IC50, RGMc-mediated BMP reporter (BRE-luc) assay in 293HEK cells [2]	Binder
0.51 nM	0.074 nM	0.074 nM	5.2e-05 s⁻¹	700000 M⁻¹ s⁻¹	0.25 nM	0.11 nM	0.285 nM	0.0014 s⁻¹	5.05e+06 M⁻¹ s⁻¹	0.11 nM	9.9e-05 s⁻¹	930000 M⁻¹ s⁻¹		RGMA-h5F9pJP302/pJP303 hIgG1/K mut (antibody, V domains shown, Tested as IgG; also called h5F9.AM11; H5F9AM.11) VH: EVQLVESGGGLVQPGGSLRLSCAASGFTFSNYGMNWVRQAPGKGLEWVSMIYYDSSEKHYADSVKGRFTISRDNSKNTLYLQMNSLRAEDTAVYYCAKGTTPDYWGQGTMVTVSS VL: DVVLTQSPLSLPVTLGQPASISCRSSQSLEDSDGGTFLEWFQQRPGQSPRLLIYDVSSRFSGVPDRFSGSGSGTDFTLKISRVEAEDVGVYYCFQATHDPLSFGQGTKLEIK
0.38 nM	< 0.0015 nM	< 0.0015 nM	< 1e-06 s⁻¹	660000 M⁻¹ s⁻¹	0.08 nM	0.031 nM	0.105 nM	0.00039 s⁻¹	3.95e+06 M⁻¹ s⁻¹	0.031 nM	2.7e-05 s⁻¹	870000 M⁻¹ s⁻¹		RGMA-h5F9pJP297/pJP298 hIgG1/K mut (antibody, V domains shown, Tested as IgG; also called h5F9.AM8; H5F9AM.8) VH: EVQLVESGGGLVQPGGSLRLSCAASGFTFSNYGMNWIRQAPGKGLEWIGMIYYDSSEKHYADSVKGRFTISRDNSKNTLYLQMNSLRAEDTAVYYCAKGTTPDYWGQGTMVTVSS VL: DVVLTQSPLSLPVTLGQPASISCRSSQSLEESDGYTFLHWFQQRPGQSPRLLIYEVSTRFSGVPDRFSGSGSGTDFTLKISRVEAEDVGVYYCFQATHDPLTFGQGTKLEIK
